According to patent US20220412975A1, “CHARACTERIZING MODULATORS OF ADAMTS-7 AND ADAMTS-12” (The Broad Institute, Inc., priority 2019, published 2022):
*: point of attachment. HiLyteFluor‑488 = fluorophore label at the N-terminus; donor fluorophore = not defined here; K(Quencher) = not defined here; K(quencher) = not defined here; Donor = not defined here; Acm = CC(=O)NC*

How the values were obtained:
Assay type in all cases: biochemical
[1] = molecular target: T1, rPro-hCD-FM2 ADAMTS-7 (SEQ ID NO: 2) (Homo sapiens, UniProt Q9UKP4, A119V/A123T/A127T/A171V/A193G/A200T/A28V/A36P/A42G/A66V/A78S/A97T/D77A/DEL186-188/DEL228-233/E133D/E190K/E213K/E83Q/G114S/G115N/G117S/G196D/G27H/H100Y/H124S/H234Q/K153R/L143F/L192S/L20I/P189H/P201S/P29L/P33S/P79S/Q235K/Q99P/R118N/R122Q/R174Q/R195Q/R215Q/R218H/R35L/R75A/R76Q/R87Q/R92L/S170E/S199R/S202G/S214H/T110I/T125V/V182M/V208G/V74A/W225K/Y209S); test: FRET peptide substrate cleavage by rPro-hCD-FM2 (SEQ ID NO: 2); settings: approx. 100 nM enzyme, 10 μM peptide substrate
T1 construct: rat ADAMTS-7 signal peptide + prodomain (rat 1-217, Q216K), fusion partner (N); 2xStrep tag (C); 6xHis tag (C); made in house; host or cells: Expi293 cells
T1 sequence (Q9UKP4 with tags, fused parts or gaps with the stated changes): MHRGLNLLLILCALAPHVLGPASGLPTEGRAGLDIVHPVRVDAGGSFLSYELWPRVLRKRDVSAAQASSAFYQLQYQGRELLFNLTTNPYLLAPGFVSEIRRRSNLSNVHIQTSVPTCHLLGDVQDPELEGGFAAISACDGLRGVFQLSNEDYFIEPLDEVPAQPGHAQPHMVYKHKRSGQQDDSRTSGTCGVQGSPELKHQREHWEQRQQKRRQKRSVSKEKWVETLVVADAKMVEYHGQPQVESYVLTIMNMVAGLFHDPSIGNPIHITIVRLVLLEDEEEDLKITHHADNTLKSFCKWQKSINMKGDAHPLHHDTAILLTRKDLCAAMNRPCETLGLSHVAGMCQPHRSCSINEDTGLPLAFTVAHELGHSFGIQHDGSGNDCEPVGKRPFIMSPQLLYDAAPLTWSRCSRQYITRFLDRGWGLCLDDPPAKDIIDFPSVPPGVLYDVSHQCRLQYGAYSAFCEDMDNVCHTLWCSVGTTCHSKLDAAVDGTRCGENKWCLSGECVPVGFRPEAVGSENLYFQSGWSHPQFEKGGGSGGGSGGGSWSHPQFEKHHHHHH
Method: (§1) Purified recombinant ADAMTS-7 (as of SEQ ID NO: 1 or SEQ ID NO: 2) and purified recombinant rADAMTS-7 (rat ADAMTS-7 residues 1-575 with a carboxyl terminal Flag, SEQ ID NO: 3) were used to identify substrates from the TSP1 and COMP candidate peptides. ADAMTS-7 was diluted in reaction buffer (20 mM HEPES pH 8.0, 150 mM NaCl, 5 mM CaCl2, 0.004% Brij, 10 μM ZnCl2) for a concentration of approximately 100 nM and pre-incubated for 2 hr at room temperature prior to reaction start with 10 μM candidate peptide substrates. There were some differences between optimized buffer data and reported 2 mM Zn^2+ buffer data (Liu 2006 FASEB J); for example, the published amount of Zinc in assay buffer caused the purified ADAMTS-7 proteins to precipitate. Candidate FRET substrates based on SEQ ID NO: 4 to 10 were generated through custom synthesis by Anaspec—AnaSpec, EGT (34801 Campus Drive, Fremont, Calif. 94555, USA); as explained by the manufacturer; AnaSpec, EGT Group's pH insensitive HiLyte™ Fluor dyes are a series of fluorescent labeling dyes with fluorescence emissions that span the full visible and near infrared spectrum. HiLyte™ Fluor dyes and AnaSpec's proprietary quenchers QXL™ have been used as fluorophore and quencher pairs for fluorescence resonance energy transfer (FRET) in our Examples in the reaction buffer.
(§2) The TSP substrate sequences indicate the cleavage site (underlined) between glutamate and leucine as determined by mass spectrometry. COMP substrate cleavage products were below the detection limit of the mass spectrometer.

[2] = molecular target: T2, rPro-hCD ADAMTS-7 (SEQ ID NO: 1) (Homo sapiens, UniProt Q9UKP4, A119V/A123T/A127T/A171V/A193G/A200T/A28V/A36P/A42G/A66V/A78S/A97T/D77A/DEL186-188/DEL228-233/E133D/E190K/E213K/E83Q/G114S/G115N/G117S/G196D/G27H/H100Y/H124S/H234Q/K153R/L143F/L192S/L20I/P189H/P201S/P29L/P33S/P79S/Q99P/R118N/R122Q/R174Q/R195Q/R215Q/R218H/R35L/R75A/R76Q/R87Q/R92L/S170E/S199R/S202G/S214H/T110I/T125V/V182M/V208G/V74A/W225K/Y209S); test: FRET peptide substrate cleavage by rPro-hCD (SEQ ID NO: 1); settings: for kcat, Enzyme SEQ ID NO: 1: rPro-hCD: approx. 100 nM enzyme, 10 μM peptide substrate; for cleavage activity with ADAMTS-7 human catalytic domain constructs (in words): rPro-hCD (SEQ ID NO: 1) and FM2 (SEQ ID NO: 2) constructs; for activity profile of modified S1 substrates (in words): S1 peptide with additional hydrophilic moiety, data not shown
T2 construct: rat ADAMTS-7 signal peptide + prodomain (rat 1-217), fusion partner (N); 2xStrep tag (C); 6xHis tag (C); made in house; host or cells: Expi293 cells
T2 sequence (Q9UKP4 with tags, fused parts or gaps with the stated changes): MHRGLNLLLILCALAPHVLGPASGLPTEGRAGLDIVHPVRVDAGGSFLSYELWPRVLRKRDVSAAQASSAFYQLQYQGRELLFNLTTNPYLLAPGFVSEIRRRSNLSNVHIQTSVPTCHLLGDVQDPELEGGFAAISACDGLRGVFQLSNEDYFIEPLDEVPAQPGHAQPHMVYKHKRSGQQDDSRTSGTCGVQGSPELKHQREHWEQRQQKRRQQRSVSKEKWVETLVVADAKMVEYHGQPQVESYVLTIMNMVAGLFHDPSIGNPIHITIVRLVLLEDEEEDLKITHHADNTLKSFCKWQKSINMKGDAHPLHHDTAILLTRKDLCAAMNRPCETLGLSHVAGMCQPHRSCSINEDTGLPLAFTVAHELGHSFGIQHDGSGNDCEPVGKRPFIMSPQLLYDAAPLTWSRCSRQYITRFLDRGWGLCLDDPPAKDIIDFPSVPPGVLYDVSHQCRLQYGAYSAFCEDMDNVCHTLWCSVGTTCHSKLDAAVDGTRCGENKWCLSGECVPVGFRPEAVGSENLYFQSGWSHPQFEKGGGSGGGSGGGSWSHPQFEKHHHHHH
Method: as §1, §2

[3] = molecular target: T3, rADAMTS7 (1-575) (Rattus norvegicus, UniProt Q1EHB3); test: FRET peptide substrate cleavage by rADAMTS7 (1-575) (SEQ ID NO: 3); settings: approx. 100 nM enzyme, 10 μM peptide substrate
T3 construct: Flag (C); made in house; host or cells: Expi293 cells
T3 sequence (Q1EHB3 with tags, fused parts or gaps): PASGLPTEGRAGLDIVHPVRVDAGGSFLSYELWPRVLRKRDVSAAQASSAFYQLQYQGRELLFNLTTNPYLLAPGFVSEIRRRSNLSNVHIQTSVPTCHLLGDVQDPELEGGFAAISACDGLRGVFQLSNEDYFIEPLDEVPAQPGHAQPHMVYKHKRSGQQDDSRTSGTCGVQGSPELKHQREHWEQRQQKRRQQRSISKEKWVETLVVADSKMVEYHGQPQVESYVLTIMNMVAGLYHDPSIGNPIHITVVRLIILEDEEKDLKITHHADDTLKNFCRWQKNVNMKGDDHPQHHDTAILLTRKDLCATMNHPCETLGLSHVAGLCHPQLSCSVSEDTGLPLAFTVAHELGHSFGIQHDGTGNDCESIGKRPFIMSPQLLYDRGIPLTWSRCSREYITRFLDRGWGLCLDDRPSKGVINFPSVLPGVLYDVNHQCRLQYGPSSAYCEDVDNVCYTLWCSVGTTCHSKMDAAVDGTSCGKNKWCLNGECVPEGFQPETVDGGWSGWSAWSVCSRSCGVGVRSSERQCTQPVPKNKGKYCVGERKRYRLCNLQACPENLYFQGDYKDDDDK
Method: as §1, §2

Substance | kcat, Enzyme SEQ ID NO: 2: rPro-hCD-FM2 [1] | kcat, Enzyme SEQ ID NO: 1: rPro-hCD [2] | cleavage activity with ADAMTS-7 human catalytic domain constructs (in words) [2] | kcat, Enzyme SEQ ID NO: 3: rADAMTS7 (1-575) [3] | activity profile of modified S1 substrates (in words) [2]
(Donor) GMQQSVRTGLPS (K-Quencher) ({donor fluorophore}-GMQQSVRTGLPS-{K(quencher)}; reading uncertain; also: donor fluorophore and quencher not given here, printed as (Donor) GMQQSVRTGLPS (K-Quencher)) [COMP1, FRET candidate peptide, COMP amino acids 73-84] | 1.27e-05 s⁻¹ | 1.22e-05 s⁻¹ | No activity | 8.17e-06 s⁻¹ | –
(Donor) SPGFRCEACPPGYS (K-Quencher) (Donor-SPGFRC(Acm)EAC(Acm)PPGYS-{K(Quencher)}; reading uncertain; also: printed as (Donor) SPGFRCEACPPGYS (K-Quencher)) [COMP2, FRET candidate peptide, COMP amino acids 146-159, Acm modified cysteines] | 6.5e-06 s⁻¹ | 6.33e-06 s⁻¹ | No activity | 8.33e-06 s⁻¹ | –
(HiLyteFluor-488)-DELSSMVLELRGLRT-K(QXL520)-E-NH2 ({HiLyteFluor‑488}-DELSSMVLELRGLRTK(QXL520)E-NH2) [SEQ ID NO: 11, S1 peptide substrate with additional carboxyl glutamic acid after the quencher] | – | – | – | – | not significantly affected
(HiLyteFluor-488)-DELSSMVLELRGLRT-K(QXL520)-K-NH2 ({HiLyteFluor‑488}-DELSSMVLELRGLRTK(QXL520)K-NH2) [SEQ ID NO: 12, S1 peptide substrate with additional lysine after the quencher] | – | – | – | – | not significantly affected
(HiLyteFluor-488)-DELSSMVLELRGLRT-K(QXL520)-NH2 ({HiLyteFluor‑488}-DELSSMVLELRGLRTK(QXL520)-NH2) [TSP1-1, FRET peptide substrate for ADAMTS-7/12, TSP1 amino acids 275-289] | 0.0004 s⁻¹ | 0.00035 s⁻¹ | greatest specificity | 0.000167 s⁻¹ | –
(HiLyteFluor-488)-DELSSMVLELRGLRT-K(QXL520)-OH ({HiLyteFluor‑488}-DELSSMVLELRGLRTK(QXL520)-OH) [SEQ ID NO: 13, S1 peptide substrate ending in -OH] | – | – | – | – | not significantly affected
(HiLyteFluor-488)-EENKELANELRRPPL-K (QXL520)-NH2 ({HiLyteFluor‑488}-EENKELANELRRPPLK(QXL520)-NH2) [TSP1-4, FRET candidate peptide, TSP1 amino acids 303-317] | 3.5e-05 s⁻¹ | 3.33e-05 s⁻¹ | No significant activity | 4.33e-05 s⁻¹ | –
(HiLyteFluor-488)-KVTEENKELANELRR-K (QXL520)-NH2 ({HiLyteFluor‑488}-KVTEENKELANELRRK(QXL520)-NH2) [TSP1-3, FRET candidate peptide, TSP1 amino acids 300-314] | 2e-05 s⁻¹ | 2e-05 s⁻¹ | No significant activity | 2.33e-05 s⁻¹ | –
(HiLyteFluor-488)-SSMVLELRGLRT-K(QXL520)-NH2 ({HiLyteFluor‑488}-SSMVLELRGLRTK(QXL520)-NH2) [TSP1-5, FRET peptide substrate, TSP1 amino acids 278-289] | 3.5e-05 s⁻¹ | 3.33e-05 s⁻¹ | Activity was observed | 4.17e-05 s⁻¹ | –
(HiLyteFluor-488)-SSMVLELRGLRTIVT-K(QXL520)-NH2 ({HiLyteFluor‑488}-SSMVLELRGLRTIVTK(QXL520)-NH2) [TSP1-2, FRET peptide substrate, TSP1 amino acids 278-292] | 4.83e-05 s⁻¹ | 5.33e-05 s⁻¹ | cleaved | 0.000128 s⁻¹ | –
